The values that follow come from the DeepSol protein solubility set.

This data set in a line: soluble on expression in E. coli; label from the status in PepcDB or PDB records.
For “MKLNNHNLKEIYSLSLNELKEELFKLGLKSFISKQIYSWIYQKRIFNFDKFSNIAKNNVIILKENFSNNLLKINSYQSNSDGSIKFEFLTDKNLIINCMIIKFKNGFLIKINPFGINFKKEIINLSTNELVLQILLIQQFLDQRKLGNITNVIIKGLQDSLLNMDVVSNFINIINNENGLNIGKRKIAVWTSGINVDLIKWGQLQNQIELIISMNASNSLIYQKIMLKKLNQNWSFLKLIEQIKAYTKITNNRVVLEYLLIDKINDDLNYANELVELLKNILCYVLLIPYNLNNYRTSANLDDFFNILSVNKIRISKRIRKSNDLDISFKQLKIKELEHHHHHH”, the “soluble on expression in E. coli” value is reported as “not soluble”. Then “MHHHHHHQYKLALNGKTLKGETTTEAVDAATAEKVFKQYANDNGVDGEWTYDDATKTFTVTEGSQWQPQLQQLRDMGIQDDELSLRALQATGGDIQAALELIFAGGAP”, with “soluble”. Then “MHRYLWQQADGKRHVYDTTRHRIQAEHSFTALCGETVIPRTERGDLTAGLWFDGECPVCTIALAKALGWPMRELADLAHRFTWSPELLARLAEILHCTSGEVAELTGARTVDT”, with “not soluble”; and “MDRVIEDKELGRLVVRDNVRAKRLVFRTKADAIYISIPLGVTMREVKEAIEKLRPRLLDSRQKLVRPLIDLNYRIETEYFKLSLVSGKRERFLAHSELGEMRIICPPTADFTDSNLQDWLRKVIEEALRRNAKIILPPRLYMLSEKHRLPYESVQINSSRGRWGSCSSRKKINLSYFLVLLPKHLIDYVLLHELCHTCEMNHGDRFWNLLNGLTDGKALELREELKRYKTEILEHHHHHH”, with “not soluble”.

For “MGSDKIHHHHHHMSLPKYVEQLLKEKSNVRVFSFKYDGKSYWLKQTEKLSFIWRFLKSNPAEMLKSEIIRLQELNKKSAPVPKLVLFGDNFFVTEDVGSSANTWVENEDLSIELRNKVLFDCAQALASLHKQNITHGRPALRDMIWCEEKVIFVDFECTSSSNNIDWQKIRDGLVFIHSLGRSSTVSDEQIALTVTHYRQYCDADIWQKTADFIYKYRWAYYVLRIFKPVARMDLIAIYRLFEAILKNQETL”, the “soluble on expression in E. coli” value is on record as “not soluble”.

Take “MLLGYCGSGYYGMQYNPPHKTIEGEILTKLFDVGAISEENSLAPKKNSFMAAARTDKGVHAMLNLLSLKITLREDTVAKLNAALPPEIRVWGIQPVNKKFNARSACDSRWYQYLIPEFILIGPPRSSLLHRNVGGCYREDGSQEVWDTFLEQTRGRFSGDELCRLQDTAQKLSESDPLVQDYVGLLSGTLSGYCLSPSKLDAFEAAMQEYVGTHNFHNFTTGKLWGDPSAQRHIKKVVVSQASPGWICVRIHGQSFMLHQIRRMVALAVLAARCQLPPNIVRNYFNAGPRKYIPRAPAQGLLLEGPVFDGYNTKLRNLLYCEIRPDDITLERMCRFRERQICTAIAHEETQRHVFCHFVRQMNRLATPLI”: the “soluble on expression in E. coli” value was “not soluble”. Then “MNMALISLAIDYKKSPIEVRSEFALSGLDVSMLYRSILAIDNVVHAVILSTCNRTEVYLEISDLRVVDDILVWWQGYVRNPNYKIKDYFKLRQGTEVIMHLMKLACGLESMVLGEPQILGQVKDSYTLSKKNHAIGKELDRVFQKVFATAKRVRSETRIGHCPVSVAFSAITLAKRQLDNISSKNVLIIGAGQTGELLFRHVTALAPKQIMLANRTIEKAQKITSAFRNASAHYLSELPQLIKKADIIIAAVNVLEYIVTCKYVGDKPRVFIDISIPQALDPKLGELEQNVYYCVDDINAVIEDNKDKRKYESSKAQKIIVKSLEEYLEKEKAIISNSAIKELFQKADGLVDLSLEKSLAKIRNGKDAEEIIKRFAYEIKKKVLHYPVVGMKEASKQGRSDCLVCMKRMFGLNVEK”, with “not soluble”; and “MAISSVGFACRSFSPVRTLQSHCLWKIRFNTVAAAIETMDESDGFATDSDRQDKVSDEPRDREWKQLNSKDLGLSSSMIAKSTRKVLNGLKSKGHDVYLVGGCVRDLILKRTPKDFDILTSAELREVSSFSTSAQNSSRNTRTECKESSGSDGDEDCIRLNNCLQRDFTINGLMFDPYAKVVYDYLGGMEDIRKAKVRTVIHAGTSFHQDCARILRAIRIAARLGFRMSKETAHFIKNLSLLVQRLDKGRILMEMNYMLAYGSAEASLRLLWKFGILEILLPIQAAYLARSGFRRRDKRTNMLLSLFANLDKLLAPDRPCHSSLWIAILAFHKALADKPRSPIVVAAFSLAVHNCGDILEAVEITKKITRPHDKSFFELVEPEENLDFQTLLDEVMDLDASIEDALNQMTDAYFISKAMSAYPQAPYSDLVFIPLQLYLRAGRIFDCVKNEETRIGFEAKQGSKIEYGSLNSGYFPEIRHVFARVVFDTVFPLNLSQEL”, with “soluble”; and “MGSDKIHHHHHHMPVTHLAGALCHPTDCTLRASNSQHIATRFNEHSSVSHTRDLDRVQVAERWSRIKECNYVPVKVANTRADLGESLVWDERSGVLYFVDISGGRINGLTPDGEVDCLYESAARIGALALTDRGNLIFTEDASVAIFDVPTRKVSQHSASVHPRSTYRFNDGACDPQGRFVTGLMDEALSDNTGALFRFDWQLSDQVIHDDMGLPTGLAWSHDGHTVYFVDSAARAIYRAEYLIEGRLGAVTLFAETPAELGRPDGLALDREGGLWVCQYHGSCLLRYDRHGYLTDQVLMPVPCPTSCCFGGPGMNTLYISTARYDMTPEDLHHYPDAGDLYAIRPETGGVARHSFKE”, with “not soluble”. Take “MGSDKIHHHHHHMTQITPQPGIMDIALYQGGAAHVDGVSNVTKLSSNENPLGPSPAAVEAMAEAAATMHRYPSSDHATLRAAIAETHGLDAERIICGAGSDEIIAFLCQCYAGPGDEVLYTEHGFAMYRISALAAGATPVEVKERERVTDVDALLAGCTAQTKLVFIANPNNPTGTMISEAEVARLADGIPEDAILVLDGAYAEYVEGFDAGAQLIAARHNVVMTRTFSKIYGLGGARVGWAYGPQEIIDVLNRVRGPFNVSTTALAGAEAAVRDTDYVQRCRLENAKWRGWLADQLAELGVPSDTSCTNFILARFASQSEAESCDDFLKQRGLIVRRVAGYNLPTALRITIGDETACRAVAAAVKDFKAGAAE”: the “soluble on expression in E. coli” value is “not soluble”.

Consider “MGSDKIHHHHHHMKVQRIQAIENLIHEKGSASLDDLCKQFNVSKNTIRRDIAKLLQKNTIKKVYGGVVSIYNNPEEIRPFENRDTENHAEKQLIGKAAADFIEENDLIFIDSGTTTSCLAAALPTDKEITIITNSLDVINFASEMDNVKLIVIGSTFKTSTKSFVGVENWGFFEKYNITKAFMAATALSTTHGVMNSDILEYEIKRHMMEKAREKFLLVDHTKVDKSALLTYGELAEFDWLVTSKEMAGGCLGYCADVGVLVRLV”, for which the “soluble on expression in E. coli” value is recorded as “not soluble”.

In the case of “MKDSPFYQHYDLDLKDKPLGEGSFSICRKCVHKKSNQAFAVKIISKRMEANTQKEITALKLCEGHPNIVKLHEVFHDQLHTFLVMELLNGGELFERIKKKKHFSETEASYIMRKLVSAVSHMHDVGVVHRDLKPENLLFTDENDNLEIKIIDFGFARLKPPDNQPLKTPCFTLHYAAPELLNQNGYDESCDLWSLGVILYTMLSGQVPFQSHDRSLTCTSAVEIMKKIKKGDFSFEGEAWKNVSQEAKDLIQGLLTVDPNKRLKMSGLRYNEWLQDGSQLSSNPLMTPDILGSSGAAVHTCVKATFHAFNKYKREGFCLQNVDKA”, the “soluble on expression in E. coli” value is “soluble”. Regarding “MSLEDSKASLETRNFYMNRDFRDGPGQSKREEWAQGFILNLQSGYTQGTVGFGLDAMGMLGVKLDSGRGRSGTGLLPKDSDGRAPDTYSKLGLTAKVKVSQSELKVGTLIPKLPSVQPNNGRIFPQIFEGALLTSKEIKDLGFTAGRLEKTKIRDSSDSEDLALNDKNGRFAGVSADHFDLGGLDYKLTDQLTASYHYSNLQDVYRQHFVGLLHSWPIGPGELTSDLRFARSTDSGSAKAGGIDNKSLNGMFTYSLGNHAFGAAWQRMNGDDAFPYLEGSNPYLVNFVQVNDFAGPKERSWQLRYDYDFVGLGIPGLTFMTRYVKGDNVELAGQSGEGREWERNTELQYVFQSGALKNLGIRWRNATFRSNFTRDIDENRLIVSYTLPIWEGHHHHHH”, the “soluble on expression in E. coli” value is recorded as “soluble”. Then “MGSDKIHHHHHHMKDNYDAPESMLTGRVMYNGEALQLRGNEAVQLQLYQHGYAKHDPINVYVNQDGMYSANLFDGEYQMITKSGNGPWTSEGRDTINVTVAGNTVQDVEVTPYYLVRDAQMTLEGNKVNASFKVEKVAGGGIDRVFFMLSTTQFVNDAEHNVDRYDETDNLDAYDETGKLYTFATRDYTDNSMFQTALKRGTLFGRICIWPKGSDQGIYSKVIRLK”, with “not soluble”. For “MGSDKIHHHHHHMTDSTTLYPVFAEELLPGGGHRSFILKRGELLRLTDLNGNANVSLTLLNAHEKTERLNLPDSLKCQHTAKLSNGHCLYSDMGRVLAAIVTDTCGWSDSIGGVLNAQEVAEKYGQGRYQELRNGFFRNGVDNLLVELGKWGLGLSDLLMTLNLFSRVDVSETGTLHFAPNNSKAGDYIELYAPMDTLVVLTALQHPMDPNPDYVPQPLTLSWMKADASVAEHCRTSRPENERGFINTDRLFA”, the “soluble on expression in E. coli” value is “not soluble”.

As to “MGSDKIHHHHHHMKQFSGLSRTIQGNHLLDTCAIDILKIGHRPLVLCAKQEYNTTVESFVKVLTCHGLIVKIVYMEEWDQNSVEECGEVGFRHRADHIIGIGNSSVAACTKAVADLLDLPAVLIPTSPFTTLPWVSVENKKRERPLFNESIQLIIADREQLLTQPTSELINGVVNTLLYLAAIKEVKRNHLFSLVDDILIRSFESVLLRGSLQAIEDFEARILSKEVQDVLEVLSTCVTLDLPSDAWDVIQQIESKLSERREDLVDEPLKRNVVLYLLLSYLTQESEEFQARLKWCQQLLLSANSSNLLSLEAVLKEIALEMGEDGSTRC”, the “soluble on expression in E. coli” value was “not soluble”. The value for “MGSDKIHHHHHHMNADTPLQLLGGLTAAEFLRDYWQRKPLLVRQAIPDFESPLSADELAGLSLEESVESRIVLEHGKTPWEMRRGPFQEEDYQHLPEQDWTLLVQAVDQFVPEVAQLLEQFRFLPSWRIDDVMISYAAPGGGVGPHFDNYDVFLLQGHGRRRWKVGQMCSSDSPLREHADLRILADFEQSDEWVLEPGDMLYLPPRLAHYGIAEDECMTYSIGFRAPSAAEVLTHFTDFLGQFLSDEERYTDAGLQPVGDDPHQIQRDALERLQGLIQEHMSDERLLLTWFGQFMTEPRYPELVAGEEIPEEELFGALEDGALLVRNPSARLAWSEIDIGLVLFASGQSVLLPGQLKELLKLVCSADALHLENLGQWLADDDARKLLAELVKQGSLEFADE” was “not soluble”; that for “MSLNPRIDYLKSLSTLAAEIYPDIRGVKKLRYNARFCLWGILMPDTLARIQDLLNQPSFHPVRQHYPRTLEKPLKPYVCVKWPPQERAQRLIEHFAFLEKRHAQLLPLIYRHQGWSLFQHELFSIQLCHGPEREGSLALVLLSQDHQPLFTLAFNISGRNKPVIHIGALQGPGPNVENRQEIIRQLTHQLHGLRPKALIMEVLLILARYWCVEKVYGVTNEGHVYQALRYIGSKRSSVRFQYSELWQEMGGEAINPYWHSLPTHPPRKAPLSLSKTKRRLYTKRYAWLTELEQSIQANLQPWDNEIHHEGHHHHHH” was “soluble”; that for “MTITSGIDVGTGAIKVVVFEVDGDQERCLGKRVERVRQRDPLKLAGDIYDDLLRETGLARADVAYCATTGEGESLTFHTGHFYSMTTHARGAIYLNPGSRAVLDTGALHGRAIRMDERGKVLAYKMTSQCASGSGQFLENIARYLGIAQDEIGSLSQRADNPEKVSGICAVLAETDVINMVSRGISSPNILRGIHESMADRLAKLLKTLGSLDGTVQMTGGLALDAGLVEAMKDAVVKAKVDVAIESHPDAIYAGAIGAALWGAFRHKRLADMAHAA” was “not soluble”.
